According to PMC10636324 (Proceedings of the National Academy of Sciences of the …, 2023):
Numbering of substitutions follows the chain as printed. Names may count otherwise.

T1: FAM91A1^N (N terminus of FAM91A1, residues 1-328), wild type (UniProt Q658Y4 1-328)
T1 sequence (looked up): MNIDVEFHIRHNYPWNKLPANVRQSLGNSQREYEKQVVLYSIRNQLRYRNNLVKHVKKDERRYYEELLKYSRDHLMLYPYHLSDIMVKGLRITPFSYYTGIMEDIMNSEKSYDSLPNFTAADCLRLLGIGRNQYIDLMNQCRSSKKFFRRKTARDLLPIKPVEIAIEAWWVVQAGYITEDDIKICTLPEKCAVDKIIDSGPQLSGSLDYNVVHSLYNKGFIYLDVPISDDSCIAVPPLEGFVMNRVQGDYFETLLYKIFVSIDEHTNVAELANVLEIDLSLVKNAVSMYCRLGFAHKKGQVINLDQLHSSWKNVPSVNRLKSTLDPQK

B1: GST-TBC1D23^514-558 F537L (domain or fragment, human, UniProt Q9NUY8-2 514-558, looked up)
chain: TPVDRHVSSSDRVGKPYRGVKPVLSIGDEEEYDTDEIDSSSMSDD
B2: GST-TBC1D23^514-558 R531H (domain or fragment, human, UniProt Q9NUY8-2 514-558, looked up)
chain: B1 chain with R18H, L24F
B3: GST-TBC1D23^514-558 T514A (domain or fragment, human, UniProt Q9NUY8-2 514-558, looked up)
chain: B1 chain with T1A, L24F
B4: GST-TBC1D23^514-558 wild type (domain or fragment, human, UniProt Q9NUY8-2 514-558, looked up)
chain: B1 chain with L24F
B5: GST-TBC1D23^514-558 K534N (domain or fragment, human, UniProt Q9NUY8-2 514-558, looked up)
chain: B1 chain with K21N, L24F
B6: GST-TBC1D23^514-558 R531C (domain or fragment, human, UniProt Q9NUY8-2 514-558, looked up)
chain: B1 chain with R18C, L24F
B7: GST-TBC1D23^514-558 V533I (domain or fragment, human, UniProt Q9NUY8-2 514-558, looked up)
chain: B1 chain with V20I, L24F
B8: GST-TBC1D23^514-558 P529A (domain or fragment, human, UniProt Q9NUY8-2 514-558, looked up)
chain: B1 chain with P16A, L24F
B9: GST-TBC1D23^514-558 R518Q (domain or fragment, human, UniProt Q9NUY8-2 514-558, looked up)
chain: B1 chain with R5Q, L24F
B10: TBC1D23^514-538 wild type (peptide, UniProt Q9NUY8-2 514-538, looked up)
peptide: TPVDRHVSSSDRVGKPYRGVKPVFS
B11: TBC1D23^514-538 R531C (peptide, UniProt Q9NUY8-2 514-538, looked up)
peptide: TPVDRHVSSSDRVGKPYCGVKPVFS
B12: TBC1D23^514-538 F537L (peptide, UniProt Q9NUY8-2 514-538, looked up)
peptide: TPVDRHVSSSDRVGKPYRGVKPVLS
B13: TBC1D23^514-538 R531H (peptide, UniProt Q9NUY8-2 514-538, looked up)
peptide: TPVDRHVSSSDRVGKPYHGVKPVFS

target: T1, FAM91A1^N (N terminus of FAM91A1, …); experiment: pull-down

binding result | Binder
binds | B1
binds | B2
binds | B3
binds | B4
binds | B5
binds | B6
binds | B7
binds | B8
binds | B9

target: T1, FAM91A1^N (N terminus of FAM91A1, …); experiment: ITC

Kd | affinity as percent of that of WT | Binder
1150 ± 160 nM | – | B10
– | ~6.6% | B11
– | ~16.4% | B12
– | ~7.9% | B13
